The values below come from patent US6060451.

For assay [1], the target named is human α-thrombin (human) (UniProt P00734). The assay can be described thus: inhibition of thrombin-mediated hydrolysis of Tosyl-Gly-Pro-Arg-AMC (fluorogenic amidolytic assay).
The target is the same in assay [2].
Assay [3] deals with bovine α-thrombin (bovine) (UniProt P00735).
Assay [4] has the same target. The assay can be described thus: inhibition of thrombin-mediated hydrolysis of Tosyl-Gly-Pro-Arg-AMC (fluorogenic amidolytic assay).
The next assay addresses thrombin. The assay can be described thus: Ki, antithrombin activity in vitro (amidolytic assay of thrombin activity).

In the assay with human α-thrombin (human) [1], “P73 [D-Phe^45, Ala^47 ]hirudin^45-65 (from UniProt P01050) (peptide)” yielded a Ki of 41 nM.

“P53 [D-Phe^45, Arg^47 ]hirudin^45-65 (peptide)”: the IC50, inhibition of fibrin clot formation was 4 nM with human α-thrombin (human) [2] and 70 nM in assay [3].

Turning to “P51 hirudin^45-55 (from UniProt P01050) (peptide)”, the Ki in the assay with human α-thrombin (human) [1] was found to be 110 nM; in assay [4], 720 nM. On to r-Hirudin HV2 (from UniProt P09945), for which the Ki turned out to be 0.00038 nM in the assay with human α-thrombin (human) [1] and 0.0004 nM with thrombin. As to “P54 [Thr^45, Arg^47, D-Pro^48 ]hirudin^45-65 (from UniProt P01050) (peptide)”, the Ki in the assay with human α-thrombin (human) [1] amounted to 72 nM.
